The results in this text go back to patent US20060251644A1.

The target in assay [1] is recombinant human IgE, SE44 (human) (UniProt P01854). In words: ELISA titration on plate-coated SE44 (human IgE); Fab detected with biotin-sheep anti-human Fd and Neutra-avidin-AP (Example 6). In general terms: An ELISA detects its analyte on a solid surface through an enzyme-linked reagent.
The target is the same in assay [2]. The description is as above. This is another data set of the same source.

Where two headings read alike, the source gives them in different places.

B1: murine TES-C21 Fab (Fab, from another filing, V domains shown)
VH: QVQLQQSGAELMKPGASVKISCKTTGYTFSMYWLEWVKQRPGHGLEWVGEISPGTFTTNYNEKFKAKATFTADTSSNTAYLQLSGLTSEDSAVYFCARFSHFSGSNYDYFDYWGQGTSLTVSS
VL: DILLTQSPAILSVSPGERVSFSCRASQSIGTNIHWYQQRTDGSPRLLIKYASESISGIPSRFSGSGSGTEFTLNINSVESEDIADYYCQQSDSWPTTFGGGTKLEIK
Usually EC50 (read off the curve) stands for the concentration that produces a half-maximal response. With B1, the concentration for a half-maximal effect (EC50 (read off the curve)) worked out at 0.04 µg/mL in assay [1] and 0.05 µg/mL in assay [2].
